Measurements published in US20200172956A1 (NATIONAL UNIVERSITY CORPORATION KUMAMOTO UNIVERSITY, published 2020).

Molecular target: T1, type IV collagen α3-SmBiT (fusion protein having SmBiT at the C-terminal of wild-type type IV collagen α3(IV) … (Homo sapiens (Human), UniProt Q01955 43-1670))
T1 construct: also called α3 chain; COL4A3 in pFC36K SmBiT vector
Experiment: split luciferase (NanoBiT) luminescence in culture supernatant of HEK293T cells co-expressing the domain-deleted α5 fusion with α3 and α4 chains

T1 sequence (Q01955 other isoform, or with tags, fused parts or gaps): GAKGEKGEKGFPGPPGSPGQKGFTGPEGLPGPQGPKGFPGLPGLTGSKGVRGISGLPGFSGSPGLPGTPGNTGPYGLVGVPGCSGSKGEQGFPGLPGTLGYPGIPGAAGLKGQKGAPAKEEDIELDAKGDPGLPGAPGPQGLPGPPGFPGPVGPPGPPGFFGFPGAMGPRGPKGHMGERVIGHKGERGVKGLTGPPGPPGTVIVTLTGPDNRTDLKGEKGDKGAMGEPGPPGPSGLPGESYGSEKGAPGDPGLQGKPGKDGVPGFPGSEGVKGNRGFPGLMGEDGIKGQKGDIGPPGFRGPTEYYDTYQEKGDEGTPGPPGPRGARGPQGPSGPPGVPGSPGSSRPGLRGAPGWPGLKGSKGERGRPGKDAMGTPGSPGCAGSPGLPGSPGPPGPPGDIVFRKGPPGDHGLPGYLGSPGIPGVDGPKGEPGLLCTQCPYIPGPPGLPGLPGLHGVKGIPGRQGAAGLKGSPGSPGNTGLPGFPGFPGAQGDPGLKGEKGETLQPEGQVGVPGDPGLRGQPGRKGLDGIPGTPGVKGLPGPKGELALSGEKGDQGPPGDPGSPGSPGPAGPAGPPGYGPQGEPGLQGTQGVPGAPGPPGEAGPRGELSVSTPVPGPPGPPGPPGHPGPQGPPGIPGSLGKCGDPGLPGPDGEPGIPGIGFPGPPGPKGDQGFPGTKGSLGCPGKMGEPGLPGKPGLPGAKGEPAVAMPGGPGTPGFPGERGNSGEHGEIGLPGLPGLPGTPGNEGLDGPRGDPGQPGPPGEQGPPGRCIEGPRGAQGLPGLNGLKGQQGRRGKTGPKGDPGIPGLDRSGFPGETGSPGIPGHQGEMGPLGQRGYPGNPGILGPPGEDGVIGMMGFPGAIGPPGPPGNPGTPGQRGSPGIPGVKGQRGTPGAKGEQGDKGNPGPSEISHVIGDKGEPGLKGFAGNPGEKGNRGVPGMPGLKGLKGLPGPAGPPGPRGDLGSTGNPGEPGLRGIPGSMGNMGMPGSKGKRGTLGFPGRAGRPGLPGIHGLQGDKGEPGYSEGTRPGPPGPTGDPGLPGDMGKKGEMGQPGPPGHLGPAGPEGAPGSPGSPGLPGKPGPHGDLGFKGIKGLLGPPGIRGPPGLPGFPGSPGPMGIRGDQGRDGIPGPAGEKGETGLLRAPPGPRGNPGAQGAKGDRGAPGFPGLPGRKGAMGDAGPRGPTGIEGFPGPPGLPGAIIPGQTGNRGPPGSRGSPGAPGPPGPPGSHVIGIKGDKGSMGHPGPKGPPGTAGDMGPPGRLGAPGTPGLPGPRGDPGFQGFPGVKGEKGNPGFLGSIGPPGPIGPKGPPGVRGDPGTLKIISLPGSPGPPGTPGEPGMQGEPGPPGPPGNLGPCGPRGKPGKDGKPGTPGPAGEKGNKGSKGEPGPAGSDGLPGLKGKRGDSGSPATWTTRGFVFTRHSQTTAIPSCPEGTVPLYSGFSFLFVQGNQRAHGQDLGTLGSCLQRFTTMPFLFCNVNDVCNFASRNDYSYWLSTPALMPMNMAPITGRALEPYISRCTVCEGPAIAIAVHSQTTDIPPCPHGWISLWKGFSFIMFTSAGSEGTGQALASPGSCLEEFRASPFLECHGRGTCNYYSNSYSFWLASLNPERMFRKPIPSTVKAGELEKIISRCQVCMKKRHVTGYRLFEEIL

B1: fusion protein having a split luciferase fragment at the C terminal of the NC1 domain of wild-type α5 chain (COL domain-deleted α5 chain) (other)
chain: GFLITRHSQTTDAPQCPQGTLQVYEGFSLLYVQGNKRAHGQDLGTAGSCLRRFSTMPFMFCNINNVCNFASRNDYSYWLSTPEPMPMSMQPLKGQSIQPFISRCAVCEAPAVVIAVHSQTIQIPHCPQGWDSLWIGYSFMMHTSAGAEGSGQALASPGSCLEEFRSAPFIECHGRGTCNYYANSYSFWLATVDVSDMFSKPQSETLKAGDLRTRISRCQVCMKRTMVFTLEDFVGDWEQTAAYNLDQVLEQGGVSSLLQNLAVSVTPIQRIVRSGENALKIDIHVIIPYEGLSADQMAQIEEVFKVVYPVDDHHFKVILPYGTLVIDGVTPNMLNYFGRPYEGIAVFDGKKITVTGTLWNGNKIIDERLITPDGSMLFRVTINS
notes: The residue range is converted from nucleotide numbers; also called 4COL (so in the source); probably ΔCOL
- binding result: no binding
